B1: OR4K15 (parent)
chain: GUUAACGGUCAUAGGCCAUGGAAACUAGGAGCACCAUUUCGCUGCCAGUGAAGAAAUGAACAAAGAAAAUCUGGGCCAGGCAGGCAUCAAAAGAAAUAGUCUUGCGCUCAACCAGAAAGUCUGUAAUCAUUUUAAGGGUA

Variants of: B1
Assay: self-cleavage, relative activity (ratio to wild type); higher = more cleavage; in vitro, sequencing; the parent is a self-cleaving ribozyme

Row | Variant | self-cleavage
1 | GUUAACGGUCAUAGGCCAUGGAAACUAGGAGCACCAUUUCGCUGCCAGUGAAGAAAUGAACAAAGAAAAUCUUGGCCAGGCAGGCAUCAAAAGAGAUAGUCUUGCGCUCAACCAGAAAGUCUGUAAUCAUUUUAAGGGUA [G73U A95G] | 0.17
2 | GUUAACGGUCAUAGGCCAUGGAAACUAGGAGCACCAUUUCGCUGCCAGUGAAGAAAUGAACAAAGAAAAUCCGGGCCAGGCAGGCAUCAAAAGAAAUAGUCUUGCGCACAACCAGAAAGUCUGUAAUCAUUUUAAGGGUA [U72C U108A] | 0.07
3 | GUUAACGGUCAUAGGCCAUGGAAACUAGGAGCACCAUUUCGCUGCCAGUGAAGAAAUGAACAAAGAAAAUCCGGGCCAGGCAGGCAUCAAAAGAAAUAGUCUUGCGCCCAACCAGAAAGUCUGUAAUCAUUUUAAGGGUA [U72C U108C] | 0.01
4 | GUUAACGGUCAUAGGCCAUGGAAACUAGGAGCACCAUUUCGCUGCCAGUGAAGAAAUGAACAAAGAAAAUCUAGGCCAGGCAGGCAUCAAAAGAAAUAGUCUUGCGCUCAACCAGAAAGUGUGUAAUCAUUUUAAGGGUA [G73A C121G] | 0.45
5 | GUUAACGGUCAUAGGCCAUGGAAACUAGGAGCACCAUUUCGCUGCCAGUGAAGAAAUGAACAAAGAAAAUCUAGGCCAGGCAGGCAUCAAAAGAAAUAGUCUUGCGCUCAACCAGAGAGUCUGUAAUCAUUUUAAGGGUA [G73A A117G] | 0.15
6 | GUUAACGGUCAUAGGCCAUGGAAACUAGGAGCACCAUUUCGCUGCCAGUGAAGAAAUGAACAAAGAAAAUCUUGGCCUGGCAGGCAUCAAAAGAAAUAGUCUUGCGCUCAACCAGAAAGUCUGUAAUCAUUUUAAGGGUA [G73U A78U] | 0.15
7 | GUUAACGGUCAUAGGCCAUGGAAACUAGGAGCACCAUUUCGCUGCCAGUGAAGAAAUGAACAAAGAAAAUCUAGGCCAGGCAGGCAUCAAAAGAAAUAGUCUUGCGCUCAACCAGAAAGCCUGUAAUCAUUUUAAGGGUA [G73A U120C] | 0.07
8 | GUUAACGGUCAUAGGCCAUGGAAACUAGGAGCACCAUUUCGCUGCCAGUGAAGAAAUGAACAAAGAAAAUCUAGGCCAGGCAGGCAUCAAAAGAAAUAGUCUUGCGCCCAACCAGAAAGUCUGUAAUCAUUUUAAGGGUA [G73A U108C] | 0.01
9 | GUUAACGGUCAUAGGCCAUGGAAACUAGGAGCACCAUUUCGCUGCCAGUGAAGAAAUGAACAAAGAAAAUCUAGGCCAGGCAGGCAUCAAAAGAAAUAGUCUUGCGCUCAACCAGAAAGUCUGUAAUCAUUUUAAUGGUA [G73A G136U] | 0.22
10 | GUUAACGGUCAUAGGCCAUGGAAACUAGGAGCACCAUUUCGCUGCCAGUGAAGAAAUGAACAAAGAAAAUCUUGGCCAGGCAGGCGUCAAAAGAAAUAGUCUUGCGCUCAACCAGAAAGUCUGUAAUCAUUUUAAGGGUA [G73U A86G] | 0.17
11 | GUUAACGGUCAUAGGCCAUGGAAACUAGGAGCACCAUUUCGCUGCCAGUGAAGAAAUGAACAAAGAAAAUCUAGGCCAGGCAGGCAUCAAAAGAAAUAGUCUUGCGCUCAACCAGAAAGUCAGUAAUCAUUUUAAGGGUA [G73A U122A] | 0.15
12 | GUUAACGGUCAUAGGCCAUGGAAACUAGGAGCACCAUUUCGCUGCCAGUGAAGAAAUGAACAAAGAAAAUCGGGGCCAGGCAGGCAUCAAAAGAAGUAGUCUUGCGCUCAACCAGAAAGUCUGUAAUCAUUUUAAGGGUA [U72G A96G] | 0.07
13 | GUUAACGGUCAUAGGCCAUGGAAACUAGGAGCACCAUUUCGCUGCCAGUGAAGAAAUGAACAAAGAAAAUCGGGGCCAGGCAGGCAUCAAAAGAAAUAGUAUUGCGCUCAACCAGAAAGUCUGUAAUCAUUUUAAGGGUA [U72G C101A] | 0.1
14 | GUUAACGGUCAUAGGCCAUGGAAACUAGGAGCACCAUUUCGCUGCCAGUGAAGAAAUGAACAAAGAAAAUCCGGGCCAGGCAGGCAUCAAAAGAAAUAGUCUUGCGCUCAACCAGAAAGUCUGCAAUCAUUUUAAGGGUA [U72C U124C] | 0.17
15 | GUUAACGGUCAUAGGCCAUGGAAACUAGGAGCACCAUUUCGCUGCCAGUGAAGAAAUGAACAAAGAAAAUCUAGGCCAGGCAGGCAUCAGAAGAAAUAGUCUUGCGCUCAACCAGAAAGUCUGUAAUCAUUUUAAGGGUA [G73A A90G] | 0.03
16 | GUUAACGGUCAUAGGCCAUGGAAACUAGGAGCACCAUUUCGCUGCCAGUGAAGAAAUGAACAAAGAAAAUCGGGGCCAGGCAGGCAUCAAAAGAAAUAGUCUUGCGCUCAACCAGAAAGUCUGUAAUCAUUUUAAGGGUA [U72G] | 0.12
17 | GUUAACGGUCAUAGGCCAUGGAAACUAGGAGCACCAUUUCGCUGCCAGUGAAGAAAUGAACAAAGAAAAUCGGGGCCGGGCAGGCAUCAAAAGAAAUAGUCUUGCGCUCAACCAGAAAGUCUGUAAUCAUUUUAAGGGUA [U72G A78G] | 0.39
18 | GUUAACGGUCAUAGGCCAUGGAAACUAGGAGCACCAUUUCGCUGCCAGUGAAGAAAUGAACAAAGAAAAUCUAGGCCAAGCAGGCAUCAAAAGAAAUAGUCUUGCGCUCAACCAGAAAGUCUGUAAUCAUUUUAAGGGUA [G73A G79A] | 0.17
19 | GUUAACGGUCAUAGGCCAUGGAAACUAGGAGCACCAUUUCGCUGCCAGUGAAGAAAUGAACAAAGAAAAUCGGGGCCAGGCAGGCAUCAAAAGAAAUAGUCUUGCGCUCAACCAGAAAGUCUGUAAUCAUUUUAGGGGUA [U72G A135G] | 0.22
20 | GUUAACGGUCAUAGGCCAUGGAAACUAGGAGCACCAUUUCGCUGCCAGUGAAGAAAUGAACAAAGAAAAUCCGGGCCAGGCAGGCAUCAAAAGAAAUAGUCUUGCGCUCAACCAGAAAGUCUGUAAACAUUUUAAGGGUA [U72C U127A] | 0.19
21 | GUUAACGGUCAUAGGCCAUGGAAACUAGGAGCACCAUUUCGCUGCCAGUGAAGAAAUGAACAAAGAAAAUCUAGGCCAGGCAGGCAUCAAAAGAGAUAGUCUUGCGCUCAACCAGAAAGUCUGUAAUCAUUUUAAGGGUA [G73A A95G] | 0.28

Row | Variant | self-cleavage
22 | GUUAACGGUCAUAGGCCAUGGAAACUAGGAGCACCAUUUCGCUGCCAGUGAAGAAAUGAACAAAGAAAAUCGGGGCCAGGCAGGCAUCAAAAGAAAUAGUCAUGCGCUCAACCAGAAAGUCUGUAAUCAUUUUAAGGGUA [U72G U102A] | 0.11
23 | GUUAACGGUCAUAGGCCAUGGAAACUAGGAGCACCAUUUCGCUGCCAGUGAAGAAAUGAACAAAGAAAAUCCGGGCCAGGCAGGCAUCAAAAGAAAUAGUCUUGCGCUCAACCAGAAAGUCUGUAAUCAUCUUAAGGGUA [U72C U131C] | 0.16
24 | GUUAACGGUCAUAGGCCAUGGAAACUAGGAGCACCAUUUCGCUGCCAGUGAAGAAAUGAACAAAGAAAAUCCGGGCCAGGCAGGCAUCAAAAGAAAUAGUCUUGCGCUCAACCAGAAAGUCUGUAAUCAUAUUAAGGGUA [U72C U131A] | 0.1
25 | GUUAACGGUCAUAGGCCAUGGAAACUAGGAGCACCAUUUCGCUGCCAGUGAAGAAAUGAACAAAGAAAAUCUAGGCCAGGCAGGCAUCAAAAGGAAUAGUCUUGCGCUCAACCAGAAAGUCUGUAAUCAUUUUAAGGGUA [G73A A94G] | 0.19
26 | GUUAACGGUCAUAGGCCAUGGAAACUAGGAGCACCAUUUCGCUGCCAGUGAAGAAAUGAACAAAGAAAAUCGGGGCCAGGCAGGCAUCAAAAGAUAUAGUCUUGCGCUCAACCAGAAAGUCUGUAAUCAUUUUAAGGGUA [U72G A95U] | 0.12
27 | GUUAACGGUCAUAGGCCAUGGAAACUAGGAGCACCAUUUCGCUGCCAGUGAAGAAAUGAACAAAGAAAAUCGGGGCCAGGCAGGCAUCAAAAGAGAUAGUCUUGCGCUCAACCAGAAAGUCUGUAAUCAUUUUAAGGGUA [U72G A95G] | 0.43
28 | GUUAACGGUCAUAGGCCAUGGAAACUAGGAGCACCAUUUCGCUGCCAGUGAAGAAAUGAACAAAGAAAAUCUUGGCCAGGCAGGCAUCAAAAGAAAUAGUCUUGCGCUCAACCAGAAGGUCUGUAAUCAUUUUAAGGGUA [G73U A118G] | 0.02
29 | GUUAACGGUCAUAGGCCAUGGAAACUAGGAGCACCAUUUCGCUGCCAGUGAAGAAAUGAACAAAGAAAAUCUAGGCCAGGCGGGCAUCAAAAGAAAUAGUCUUGCGCUCAACCAGAAAGUCUGUAAUCAUUUUAAGGGUA [G73A A82G] | 0.22
30 | GUUAACGGUCAUAGGCCAUGGAAACUAGGAGCACCAUUUCGCUGCCAGUGAAGAAAUGAACAAAGAAAAUCUAGGCCAGGCAGGCAUCAAAAGAAAUAGUCUUGCGCUCAACCAGUAAGUCUGUAAUCAUUUUAAGGGUA [G73A A116U] | 0.03
31 | GUUAACGGUCAUAGGCCAUGGAAACUAGGAGCACCAUUUCGCUGCCAGUGAAGAAAUGAACAAAGAAAAUCUAGGCCAGGCAGGCAUCAAAGGAAAUAGUCUUGCGCUCAACCAGAAAGUCUGUAAUCAUUUUAAGGGUA [G73A A92G] | 0.2
32 | GUUAACGGUCAUAGGCCAUGGAAACUAGGAGCACCAUUUCGCUGCCAGUGAAGAAAUGAACAAAGAAAAUCUAGGCCAGGCAGGCAUCAAAAGAAAUAGUCUUGCGCUCAACCAGAAGGUCUGUAAUCAUUUUAAGGGUA [G73A A118G] | 0.14
33 | GUUAACGGUCAUAGGCCAUGGAAACUAGGAGCACCAUUUCGCUGCCAGUGAAGAAAUGAACAAAGAAAAUCUUGGCCAGGCAGGCAUCAAAAGAAAUAGUCUUGCGCUCGACCAGAAAGUCUGUAAUCAUUUUAAGGGUA [G73U A110G] | 0.03
34 | GUUAACGGUCAUAGGCCAUGGAAACUAGGAGCACCAUUUCGCUGCCAGUGAAGAAAUGAACAAAGAAAAUCGGGGCCAGGCAGGCAUCAAAAGAAAUAGUCUUGCGCUCAACCAGAAAGCCUGUAAUCAUUUUAAGGGUA [U72G U120C] | 0.13
35 | GUUAACGGUCAUAGGCCAUGGAAACUAGGAGCACCAUUUCGCUGCCAGUGAAGAAAUGAACAAAGAAAAUCGGGGCCAGGCAGGCAUCAAAAGAAAUAGUCUUGCGCUCAACCCGAAAGUCUGUAAUCAUUUUAAGGGUA [U72G A114C] | 2.51
36 | GUUAACGGUCAUAGGCCAUGGAAACUAGGAGCACCAUUUCGCUGCCAGUGAAGAAAUGAACAAAGAAAAUCCGGGCCAGGCAGGCAUCAAAAGAAAUAGUCUUGCGCUCAACCAGAAAGUCAGUAAUCAUUUUAAGGGUA [U72C U122A] | 0.09
37 | GUUAACGGUCAUAGGCCAUGGAAACUAGGAGCACCAUUUCGCUGCCAGUGAAGAAAUGAACAAAGAAAAUCUUGGCCAGGCAGGCAUCAAAGGAAAUAGUCUUGCGCUCAACCAGAAAGUCUGUAAUCAUUUUAAGGGUA [G73U A92G] | 0.16
38 | GUUAACGGUCAUAGGCCAUGGAAACUAGGAGCACCAUUUCGCUGCCAGUGAAGAAAUGAACAAAGAAAAUCGGGGCCAGGCAGGCAUCAAAAGAAAGAGUCUUGCGCUCAACCAGAAAGUCUGUAAUCAUUUUAAGGGUA [U72G U97G] | 0.3
39 | GUUAACGGUCAUAGGCCAUGGAAACUAGGAGCACCAUUUCGCUGCCAGUGAAGAAAUGAACAAAGAAAAUCUUGGCCAGGCAGGCAUCAAAAGAAAUAGUCUUGCGCUCAACCAGAAAGUCUGUAGUCAUUUUAAGGGUA [G73U A126G] | 0.07
40 | GUUAACGGUCAUAGGCCAUGGAAACUAGGAGCACCAUUUCGCUGCCAGUGAAGAAAUGAACAAAGAAAAUCCGGGCCAGGCAGGCAUCAAAAGAAAUAGUCUUGCGCUCAACCAGAAAGUCUGUAAUCAUUUCAAGGGUA [U72C U133C] | 0.13
41 | GUUAACGGUCAUAGGCCAUGGAAACUAGGAGCACCAUUUCGCUGCCAGUGAAGAAAUGAACAAAGAAAAUCCGGGCCAGGCAGGCAUCAAAAGAAAUAGUCUUGCGCUCAACCAGAAAGUCUGUAAUCAUUCUAAGGGUA [U72C U132C] | 0.3
